Results as given in publication doi:10.1101/839423, “Mechanism of the secretion of the lanthipeptide nisin” (bioRxiv, 2019).

T1: NisB, nisin dehydratase (Lactococcus lactis, UniProt P20103 1-993)
T1 construct: Nisin biosynthesis protein NisB (dehydratase), Lactococcus lactis; printed as about 117 kDa; source: expressed and purified as described previously (Mavaro 2011; Abts 2013; Reiners 2017)
T1 sequence (looked up): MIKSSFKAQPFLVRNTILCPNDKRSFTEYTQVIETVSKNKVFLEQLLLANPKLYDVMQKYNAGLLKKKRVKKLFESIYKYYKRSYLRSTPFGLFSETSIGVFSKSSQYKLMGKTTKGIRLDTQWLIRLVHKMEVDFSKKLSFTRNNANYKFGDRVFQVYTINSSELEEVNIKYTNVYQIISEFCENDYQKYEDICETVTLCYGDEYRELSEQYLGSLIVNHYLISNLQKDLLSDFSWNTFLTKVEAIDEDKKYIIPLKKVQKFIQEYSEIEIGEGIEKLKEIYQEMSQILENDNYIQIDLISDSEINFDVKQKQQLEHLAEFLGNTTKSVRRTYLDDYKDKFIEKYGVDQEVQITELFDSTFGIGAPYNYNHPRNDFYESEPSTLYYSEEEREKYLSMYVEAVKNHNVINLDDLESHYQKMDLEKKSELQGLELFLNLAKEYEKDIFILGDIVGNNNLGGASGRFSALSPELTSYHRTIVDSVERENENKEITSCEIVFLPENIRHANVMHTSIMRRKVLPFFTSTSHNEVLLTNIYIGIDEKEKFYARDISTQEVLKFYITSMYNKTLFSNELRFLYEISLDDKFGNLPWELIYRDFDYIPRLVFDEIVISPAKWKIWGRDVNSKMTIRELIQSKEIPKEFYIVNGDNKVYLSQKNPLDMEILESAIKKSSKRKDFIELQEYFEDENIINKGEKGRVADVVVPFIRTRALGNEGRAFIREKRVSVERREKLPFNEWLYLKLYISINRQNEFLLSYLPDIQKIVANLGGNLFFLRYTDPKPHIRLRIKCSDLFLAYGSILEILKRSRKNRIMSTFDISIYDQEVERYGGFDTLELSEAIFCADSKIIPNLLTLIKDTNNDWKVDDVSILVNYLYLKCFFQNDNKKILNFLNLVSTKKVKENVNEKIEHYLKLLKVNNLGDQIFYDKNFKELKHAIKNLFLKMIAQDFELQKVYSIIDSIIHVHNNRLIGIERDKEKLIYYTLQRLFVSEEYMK

B1: NisC, nisin cyclase (enzyme, Lactococcus lactis, UniProt Q03202 1-418, looked up)
chain: MRIMMNKKNIKRNVEKIIAQWDERTRKNKENFDFGELTLSTGLPGIILMLAELKNKDNSKIYQKKIDNYIEYIVSKLSTYGLLTGSLYSGAAGIALSILHLREDDEKYKNLLDSLNRYIEYFVREKIEGFNLENITPPDYDVIEGLSGILSYLLLINDEQYDDLKILIINFLSNLTKENNGLISLYIKSENQMSQSESEMYPLGCLNMGLAHGLAGVGCILAYAHIKGYSNEASLSALQKIIFIYEKFELERKKQFLWKDGLVADELKKEKVIREASFIRDAWCYGGPGISLLYLYGGLALDNDYFVDKAEKILESAMQRKLGIDSYMICHGYSGLIEICSLFKRLLNTKKFDSYMEEFNVNSEQILEEYGDESGTGFLEGISGCILVLSKFEYSINFTYWRQALLLFDDFLKGGKRK
notes: Nisin biosynthesis protein NisC (cyclase), Lactococcus lactis; printed as about 48 kDa; source: expressed and purified as described previously (Mavaro 2011; Abts 2013; Reiners 2017)
B2: 10HNisT, deca-histidine tagged ABC transporter NisT (natural protein, Lactococcus lactis, UniProt Q03203 1-600, looked up)
chain: MDEVKEFTSKQFFYTLLTLPSTLKLIFQLEKRYAIYLIVLNAITAFVPLASLFIYQDLINSVLGSGRHLINIIIIYFIVQVITTVLGQLESYVSGKFDMRLSYSINMRLMRTTSSLELSDYEQADMYNIIEKVTQDSTYKPFQLFNAIIVELSSFISLLSSLFFIGTWNIGVAILLLIVPVLSLVLFLRVGQLEFLIQWQRASSERETWYIVYLLTHDFSFKEIKLNNISNYFIHKFGKLKKGFINQDLAIARKKTYFNIFLDFILNLINILTIFAMILSVRAGKLLIGNLVSLIQAISKINTYSQTMIQNIYIIYNTSLFMEQLFEFLKRESVVHKKIEDTEICNQHIGTVKVINLSYVYPNSNAFALKNINLSFEKGELTAIVGKNGSGKSTLVKIISGLYQPTMGIIQYDKMRSSLMPEEFYQKNISVLFQDFVKYELTIRENIGLSDLSSQWEDEKIIKVLDNLGLDFLKTNNQYVLDTQLGNWFQEGHQLSGGQWQKIALARTFFKKASIYILDEPSAALDPVAEKEIFDYFVALSENNISIFISHSLNAARKANKIVVMKDGQVEDVGSHDVLLRRCQYYQELYYSEQYEDNDE
notes: the nisT gene was amplified from genomic DNA of L. lactis NZ97000; 10HNisT is printed as 72.5 kDa (72.6 kDa in the methods), NisT as about 69 kDa; In the pull-down the detergent was CYMAL5; also called WT; source: L. lactis NZ9000 (pNZ-SV10HnisT), membranes solubilised with Fos-choline-16, purified (IMAC, SEC)

Assays:
[1] = target: B2; experiment: pull-down; as a1, with NisB and NisC together (1:1), pre-incubated 15 min on ice with mNisA (20x molar excess to NisT); conditions: both partners purified
[2] = target: T1, NisB, nisin dehydratase; experiment: pull-down; about 15 ug 10HNisT immobilised on Ni-NTA magnetic beads; 10 uM NisB, NisC or both, no substrate; 1 h at 30 C; 25 mM Tris-HCl pH 7.5, 50 mM KCl, 0.4% CYMAL5, 400 mM glutamate, 5 mM MgATP; six washes, elution with 50 mM EDTA, Western blot; conditions: both partners purified

Binder | binding result [1] | binding result [2]
B1 | binds | 
B2 |  | binds
